What was measured:
[1] = biological target: DNAX Leukocyte Associated Immunoglobulin-like Receptor (DLAIR-1), the DX26 antigen, product of the YE01 gene (human) (UniProt Q6GTX8); assay: flow cytometry on U937 myeloid tumor cells (DLAIR-positive), PE goat-anti-mouse-IgG second step
[2] = biological target: DNAX Leukocyte Associated Immunoglobulin-like Receptor (DLAIR-1), the DX26 antigen, product of the YE01 gene (human) (UniProt Q6GTX8); assay: flow cytometry on Molt4 T cell tumor cells (DLAIR-positive), PE goat-anti-mouse-IgG second step
[3] = biological target: DNAX Leukocyte Associated Immunoglobulin-like Receptor (DLAIR-1), the DX26 antigen, product of the YE01 gene (human) (UniProt Q6GTX8); assay: flow cytometry on CEM T cell tumor cells (DLAIR-positive), PE goat-anti-mouse-IgG second step
[4] = biological target: DNAX Leukocyte Associated Immunoglobulin-like Receptor (DLAIR-1), the DX26 antigen, product of the YE01 gene (human) (UniProt Q6GTX8); assay: flow cytometry on Jurkat T cell tumor cells (DLAIR-positive), PE goat-anti-mouse-IgG second step
[5] = biological target: DNAX Leukocyte Associated Immunoglobulin-like Receptor (DLAIR-1), the DX26 antigen, product of the YE01 gene (human) (UniProt Q6GTX8); assay: flow cytometry on HL60 promyeloid tumor cells (DLAIR-positive), PE goat-anti-mouse-IgG second step
[6] = biological target: DNAX Leukocyte Associated Immunoglobulin-like Receptor (DLAIR-1), the DX26 antigen, product of the YE01 gene (human) (UniProt Q6GTX8); assay: flow cytometry on Peer T cell tumor cells (DLAIR-positive), PE goat-anti-mouse-IgG second step
[7] = biological target: DNAX Leukocyte Associated Immunoglobulin-like Receptor (DLAIR-1), the DX26 antigen, product of the YE01 gene (human) (UniProt Q6GTX8); assay: flow cytometry on CEM T cell tumor cells, PE goat-anti-mouse-IgG second step
[8] = biological target: DNAX Leukocyte Associated Immunoglobulin-like Receptor (DLAIR-1), the DX26 antigen, product of the YE01 gene (human) (UniProt Q6GTX8); assay: flow cytometry on HL60 promyeloid tumor cells, PE goat-anti-mouse-IgG second step
[9] = biological target: DNAX Leukocyte Associated Immunoglobulin-like Receptor (DLAIR-1), the DX26 antigen, product of the YE01 gene (human) (UniProt Q6GTX8); assay: flow cytometry on U937 myeloid tumor cells, PE goat-anti-mouse-IgG second step
[10] = biological target: DNAX Leukocyte Associated Immunoglobulin-like Receptor (DLAIR-1), the DX26 antigen, product of the YE01 gene (human) (UniProt Q6GTX8); assay: flow cytometry on Jurkat T cell tumor cells, PE goat-anti-mouse-IgG second step
[11] = biological target: DNAX Leukocyte Associated Immunoglobulin-like Receptor (DLAIR-1), the DX26 antigen, product of the YE01 gene (human) (UniProt Q6GTX8); assay: flow cytometry on HUT78 T cell tumor cells, PE goat-anti-mouse-IgG second step
[12] = biological target: DNAX Leukocyte Associated Immunoglobulin-like Receptor (DLAIR-1), the DX26 antigen, product of the YE01 gene (human) (UniProt Q6GTX8); assay: flow cytometry on Peer T cell tumor cells, PE goat-anti-mouse-IgG second step
[13] = biological target: DNAX Leukocyte Associated Immunoglobulin-like Receptor (DLAIR-1), the DX26 antigen, product of the YE01 gene (human) (UniProt Q6GTX8); assay: flow cytometry on Molt4 T cell tumor cells, PE goat-anti-mouse-IgG second step

Row | mean fluorescence intensity (mean fluorescence intensity) [1] | mean fluorescence intensity (mean fluorescence intensity) [2] | mean fluorescence intensity (mean fluorescence intensity) [3] | mean fluorescence intensity (mean fluorescence intensity) [4] | mean fluorescence intensity (mean fluorescence intensity) [5] | mean fluorescence intensity (mean fluorescence intensity) [6] | mean fluorescence intensity (mean fluorescence intensity) [7] | mean fluorescence intensity (mean fluorescence intensity) [8] | mean fluorescence intensity (mean fluorescence intensity) [9] | mean fluorescence intensity (mean fluorescence intensity) [10] | mean fluorescence intensity (mean fluorescence intensity) [11] | mean fluorescence intensity (mean fluorescence intensity) [12] | mean fluorescence intensity (mean fluorescence intensity) [13] | Substance
1 | < 5 | < 5 | < 5 | < 5 | < 5 | < 5 | – | – | – | – | – | – | – | control IgG1 (antibody)
2 | – | – | – | – | – | – | 92.7 | 46.9 | 49.5 | 47.1 | 25.8 | 29.1 | 30.7 | DX26 monoclonal antibody
